Where two headings read alike, the source gives them in different places.
Assays:
[1] = molecular target: RAD21-mAID-Clover (human; arabidopsis) (UniProt O60216)
[2] = molecular target: mAID-EGFP-NLS (arabidopsis)
[3] = molecular target: mAID-EGFP-NLS (arabidopsis); remark: listed apart in the source
[4] = molecular target: mAID-EGFP-NLS (arabidopsis); remark: listed apart in the source

RAD21-mAID-Clover (human; arabidopsis), sequence (O60216 other isoform, or with tags, fused parts or gaps): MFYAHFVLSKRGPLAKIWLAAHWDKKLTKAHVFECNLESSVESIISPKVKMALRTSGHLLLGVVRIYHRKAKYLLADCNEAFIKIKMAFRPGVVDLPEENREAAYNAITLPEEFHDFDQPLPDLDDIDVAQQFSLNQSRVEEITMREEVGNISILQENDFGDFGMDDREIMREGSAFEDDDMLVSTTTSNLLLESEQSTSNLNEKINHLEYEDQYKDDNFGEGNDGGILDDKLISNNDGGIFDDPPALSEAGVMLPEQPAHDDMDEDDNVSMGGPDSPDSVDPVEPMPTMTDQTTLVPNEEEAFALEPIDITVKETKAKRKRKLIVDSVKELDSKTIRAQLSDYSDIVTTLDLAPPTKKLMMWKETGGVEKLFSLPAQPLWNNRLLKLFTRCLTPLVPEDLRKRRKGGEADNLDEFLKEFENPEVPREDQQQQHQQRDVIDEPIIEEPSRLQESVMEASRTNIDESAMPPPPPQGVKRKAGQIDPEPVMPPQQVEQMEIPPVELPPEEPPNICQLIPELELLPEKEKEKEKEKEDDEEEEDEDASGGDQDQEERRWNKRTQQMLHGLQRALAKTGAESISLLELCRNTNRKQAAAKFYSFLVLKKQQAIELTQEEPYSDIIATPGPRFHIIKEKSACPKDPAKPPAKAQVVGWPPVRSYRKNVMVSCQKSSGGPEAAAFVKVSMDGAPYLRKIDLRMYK
OsTIR1(WT) (receptor), sequence (chain): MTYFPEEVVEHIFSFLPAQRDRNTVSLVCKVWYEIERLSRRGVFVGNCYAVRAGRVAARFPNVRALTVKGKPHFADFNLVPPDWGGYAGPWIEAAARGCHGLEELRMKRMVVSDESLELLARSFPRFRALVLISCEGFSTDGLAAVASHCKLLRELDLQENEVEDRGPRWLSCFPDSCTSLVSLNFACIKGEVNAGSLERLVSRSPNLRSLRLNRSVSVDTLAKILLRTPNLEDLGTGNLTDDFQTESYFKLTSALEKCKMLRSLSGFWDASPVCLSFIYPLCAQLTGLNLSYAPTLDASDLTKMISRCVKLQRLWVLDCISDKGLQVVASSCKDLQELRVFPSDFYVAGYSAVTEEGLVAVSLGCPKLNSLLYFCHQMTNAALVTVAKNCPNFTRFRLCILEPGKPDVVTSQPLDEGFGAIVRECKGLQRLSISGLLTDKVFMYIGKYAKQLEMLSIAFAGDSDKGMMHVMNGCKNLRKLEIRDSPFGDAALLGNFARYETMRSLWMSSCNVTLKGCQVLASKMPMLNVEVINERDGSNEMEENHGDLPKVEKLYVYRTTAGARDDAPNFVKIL
OsTIR1(WT), sequence (chain): as above

Row | T1/2 of RAD21-mAC after the addition of a ligand [1] [min] | half-life of the reporter after ligand addition (time course) [2] [min] | DC 50 (concentration of 5-Ph-IAA for 50% degradation of the reporter) [3] [µM] | half-life of the reporter after ligand addition (time course) [4] [min] | DC 50 (concentration of IAA (auxin) for 50% degradation of the reporter) [3] [µM] | Substance
1 | 11.7 | 62.3 | 0.00045 | – | – | OsTIR1(F74G) (receptor)
2 | 26.5 | – | – | – | – | OsTIR1(WT)
3 | – | – | – | 147 | 0.3 | OsTIR1(WT) (receptor)
